We go through 1 molecule from paper PMC6776665, “A tri-ionic anchor mechanism drives Ube2N-specific recruitment and K63-chain ubiquitination in TRIM ligases” (Nature Communications, 2019).

Data set [1] concerns the molecule itself. The experiment in a line: crystal structure; T21-R with Ube2N^C87K/K92A~Ub, 2.8 Å, space group P1, two complexes in the asymmetric unit (2xT21-R, 2xUbe2N~Ub).
A further data set deals with T1, ubiquitin (WT) (UniProt P0CG48 1-76).
T1 construct: WT ubiquitin, the cut product of the ubiquitin precursor (G76 printed as the residue linked to Ube2N); In the rows of the crystal structure it is the ubiquitin moiety of the conjugate m8, linked by G76 to Ube2N K87; source: E. coli Rosetta 2 DE3, purified (perchloric acid precipitation, cation exchange, SEC)
The description is as above. As to conditions: both partners purified.

B1: TRIM21-RING (residue 1-85) (domain or fragment)
chain: GSHMASAARLTMMWEEVTCPICLDPFVEPVSIECGHSFCQECISQVGKGGGSVCPVCRQRFLLKNLRPNRQLANMVNNLKEISQEARE
notes: tripeptide scar left at the N-terminus after cleavage of the GST tag; TRIM21 RING domain (T21-R), residues 1-85; Wild-type RING; a RING dimer in the crystal (2xT21-R and 2xUbe2N~Ub in the asymmetric unit); also called T21-R; TRIM21 RING domain; source: E. coli C41 DE3 or BL21 DE3, purified (glutathione sepharose, tag cleaved on beads, SEC); not shown: GST, N-terminal, cleaved
For the molecule B1, the binding result (in data set [1]; in the data set with ubiquitin (WT)) was “binds” in each case.
